Reference: patent publication US20190002503A1 (published 2019)
Read-outs that look alike come from different tables or passages of the source. Starred links: 1 amine or outer side, 2 acyl side, 3 side chain; linkers in the order of their positions; H or OH if unused. Positions of bridges follow the written chain, without caps; N, C: chain ends. Groups on a side chain read outwards from the residue. *: point of attachment. γGlu = O=C(O)[C@H](CCC(=O)[*:2])N[*:1]; Palmitoyl = CCCCCCCCCCCCCCCC(=O)*; Isovaleryl = CC(C)CC(=O)*

T1: human ferroportin (SLC40A1) fused in frame with GFP, stably expressed in HEK293 cells (human, UniProt Q9NP59 1-571)
T1 sequence (looked up): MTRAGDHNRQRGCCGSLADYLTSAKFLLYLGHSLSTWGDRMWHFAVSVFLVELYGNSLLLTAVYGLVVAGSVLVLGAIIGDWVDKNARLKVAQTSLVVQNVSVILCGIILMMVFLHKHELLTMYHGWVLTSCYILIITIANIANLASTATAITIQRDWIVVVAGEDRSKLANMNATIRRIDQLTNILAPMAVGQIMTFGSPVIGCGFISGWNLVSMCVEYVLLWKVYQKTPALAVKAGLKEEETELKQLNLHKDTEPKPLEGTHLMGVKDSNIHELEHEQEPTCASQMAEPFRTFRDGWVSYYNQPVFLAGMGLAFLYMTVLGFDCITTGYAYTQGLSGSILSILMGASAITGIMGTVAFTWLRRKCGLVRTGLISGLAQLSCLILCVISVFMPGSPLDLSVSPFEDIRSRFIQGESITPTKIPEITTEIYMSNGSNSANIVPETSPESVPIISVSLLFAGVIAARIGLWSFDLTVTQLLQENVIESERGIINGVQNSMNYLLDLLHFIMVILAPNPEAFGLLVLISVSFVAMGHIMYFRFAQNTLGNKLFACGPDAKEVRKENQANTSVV


Columns and labels:
Assay in all cases: cell-based or functional assay
[1] = biological target: T1, human ferroportin (SLC40A1) fused in …
[2] = biological target: T1, human ferroportin (SLC40A1) fused in …; remark: listed apart in the source
[3] = biological target: T1, human ferroportin (SLC40A1) fused in …; remark: listed apart in the source

Row | Binder | HEK-GFP cell based assay: potency EC50 (loss of ferroportin-GFP fluorescence) [1] | further results
1 | DTHFPCIKFKPRSKGC (N-terminal isovaleric acid; Lys 10 carries IsoGlu-Palm; C-terminal NH2 (amide)) [Compound 9] | 11 nM | 
2 | DTHFPCIKFKPRSKGCK (N-terminal isovaleric acid; Lys 10 carries PEG11-Lauric acid; C-terminal NH2 (amide)) [Compound 18] | 36 nM | 
3 | DTHFPCIKFXX (N-terminal isovaleric acid on each subunit; the two subunits are joined by IDA-[βala] that carries Peg2-Palm) [Compound 31] |  | HEK-GFP cell based assay: potency EC50 (loss of ferroportin-GFP fluorescence) [2]: 8 nM
4 | Isovaleryl-DTHFPCKKFK([γGlu-Palmitoyl])PRSKGCK-NH2 (disulfide 6-16 (inferred)) [Compound 11] | 22 nM | 
5 | Isovaleryl-DTHFPCIRFK([γGlu-Octanoic acid])-NH2 (also: dimer: two subunits joined at their C-termini through the Lys linker) [Compound 30] |  | HEK-GFP cell based assay: potency EC50 (loss of ferroportin-GFP fluorescence) [2]: 18 nM
6 | DTHFPCIKFXX (N-terminal isovaleric acid on each subunit; the two subunits are joined by IDA-[βala] that carries Peg11-Palm) [Compound 32] |  | HEK-GFP cell based assay: potency EC50 (loss of ferroportin-GFP fluorescence) [2]: 13 nM
7 | DTHFPCIKFKPRSKXCK (N-terminal isovaleric acid; Lys 10 carries Ahx-Palm; Sar (sarcosine) at 15; C-terminal NH2 (amide)) [Compound 24] | 10 nM | 
8 | DTHFPCIKFKPRSKGCK (N-terminal isovaleric acid; Lys 10 carries Ac (acetyl); C-terminal NH2 (amide)) [Compound 25] | 14 nM | 
9 | DTHFPCIKFKPRSKGCK (N-terminal isovaleric acid; Lys 10 carries isoGlu-Myristic acid; C-terminal NH2 (amide)) [Compound 13] | 10 nM | 
10 | FICIPFHTD (all residues are D-amino acids (retro inverse of mini-hepcidin); C-terminal NH2 (amide)) [RI-Mini Hepcidin] |  | Potency EC50 (nM), ferroportin degradation in ferroportin-GFP HEK293 cells [3]: > 10000 nM
11 | H-DTHFPICIF-NH2 [Mini-Hepcidin 1-9] |  | Potency EC50 (nM), ferroportin degradation in ferroportin-GFP HEK293 cells [3]: 712 nM
12 | DTHFPCIKFKPRSKGCK (N-terminal isovaleric acid; Lys 10 carries PEG2-Palm; C-terminal NH2 (amide)) [Compound 16] | 36 nM | 
13 | DTHFPCIKFKPRSKGCK (N-terminal isovaleric acid; Lys 10 carries PEG11-Palm; C-terminal NH2 (amide)) [Compound 17] | 30 nM | 
14 | DTHFPCIKFKPRSKXC (N-terminal isovaleric acid; Lys 10 carries IsoGlu-Palm; Sar (sarcosine) at 15; C-terminal NH2 (amide)) [Compound 10] | 10 nM | 
15 | DTHFPCIKFKPRSKGCK (N-terminal isovaleric acid; Lys 10 carries isoGlu-Lauric acid; C-terminal NH2 (amide)) [Compound 12] | 14 nM | 
16 | DTHFPCIKFKPRSKGCK (N-terminal isovaleric acid; Lys 10 carries isoGlu-Isovaleric acid; C-terminal NH2 (amide)) [Compound 15] | 26 nM | 
17 | DTHFPCIKFKPRSKGCK (N-terminal isovaleric acid; Lys 10 carries PEG8; C-terminal NH2 (amide)) [Compound 21] | 32 nM | 
18 | DTHFPCIKFKPRSKXCK (N-terminal isovaleric acid; Lys 10 carries IsoGlu-Palm; Sar (sarcosine) at 15; C-terminal NH2 (amide)) [Compound 6] | 11 nM | 
19 | DTHFPCIKFKPRSKGCK (N-terminal isovaleric acid; Lys 10 carries isoGlu-Bioitin (biotin); C-terminal NH2 (amide)) [Compound 14] | 29 nM | 
20 | DTHFPCIKFKPRSKGCK (N-terminal isovaleric acid; Lys 10 carries PEG11-Myristic acid; C-terminal NH2 (amide)) [Compound 19] | 30 nM | 
21 | DTHFPCIKFKPRSKGCK (N-terminal isovaleric acid; Lys 10 carries Palm; C-terminal NH2 (amide)) [Compound 20] | 19 nM | 
22 | DTHFPCIKFKPRSKGCK (N-terminal isovaleric acid; Lys 10 carries Ahx-Palm; C-terminal NH2 (amide)) [Compound 22] | 18 nM | 
